The source of these data is patent US8450067B2, “Method for obtaining anti-idiotype antibodies” (Omrix Biopharmaceuticals Inc., priority 2002, dated 2013).

Assay [1] deals with synthetic cyclic peptide (1) KHETTET. Put plainly: ELISA on coated Pep 1; control IgG 1 ug/ml.
The target is the same in assay [2]. Put plainly: ELISA on coated Pep 1; control IgG 5 ug/ml. (In an ELISA, binding on a coated surface is turned into a signal by an enzyme label.)
Assay [3] concerns the target synthetic cyclic peptide (2) PPNHSHL. In words: ELISA on coated Pep 2; control IgG 1 ug/ml.
For assay [4] the target is unchanged. Put plainly: ELISA on coated Pep 2; control IgG 5 ug/ml.
For assay [5], the target named is synthetic cyclic peptide (3) AGLKNSQ. Put plainly: ELISA on coated Pep 3; control IgG 1 ug/ml.
The target is the same in assay [6]. Put plainly: ELISA on coated Pep 3; control IgG 5 ug/ml.
Assay [7] has as its target synthetic cyclic peptide (4) ASTIRAG. In words: ELISA on coated Pep 4; control IgG 1 ug/ml.
Assay [8] has the same target. In words: ELISA on coated Pep 4; control IgG 5 ug/ml.
Assay [9] addresses synthetic cyclic peptide (5) VRVLLRS. In words: ELISA on coated Pep 5; control IgG 1 ug/ml.
Assay [10] has the same target. Put plainly: ELISA on coated Pep 5; control IgG 5 ug/ml.
The target in assay [11] is synthetic cyclic peptide (6) TQPPELP. In words: ELISA on coated Pep 6; control IgG 1 ug/ml.
For assay [12] the target is unchanged. Put plainly: ELISA on coated Pep 6; control IgG 5 ug/ml.
Assay [13] has as its target synthetic cyclic peptide (7) LSQPERW. In words: ELISA on coated Pep 7; control IgG 1 ug/ml.
Assay [14] shares this target. Put plainly: ELISA on coated Pep 7; control IgG 5 ug/ml.
Assay [15] addresses synthetic cyclic peptide (8) PPPDLHA. In words: ELISA on coated Pep 8; control IgG 1 ug/ml.
Assay [16] has the same target. Put plainly: ELISA on coated Pep 8; control IgG 5 ug/ml.
Assay [17] deals with synthetic cyclic peptide (9) GTTQWVL. Put plainly: ELISA on coated Pep 9; control IgG 1 ug/ml.
The target is the same in assay [18]. In words: ELISA on coated Pep 9; control IgG 5 ug/ml.
Assay [19] concerns the target synthetic cyclic peptide (10) YGTPSSE. Put plainly: ELISA on coated Pep 10; control IgG 1 ug/ml.
Assay [20] has the same target. Put plainly: ELISA on coated Pep 10; control IgG 5 ug/ml.
The target of assay [21] is synthetic cyclic peptide (11) SLQRHPW. Put plainly: ELISA on coated Pep 11; control IgG 1 ug/ml.
For assay [22] the target is unchanged. In words: ELISA on coated Pep 11; control IgG 5 ug/ml.
For assay [23], the target named is synthetic cyclic peptide (12) PLPDWRV. Put plainly: ELISA on coated Pep 12; control IgG 1 ug/ml.
Assay [24] has the same target. In words: ELISA on coated Pep 12; control IgG 5 ug/ml.
Assay [25] addresses synthetic cyclic peptide (13) DWLYSRS. Put plainly: ELISA on coated Pep 13; control IgG 1 ug/ml.
The target is the same in assay [26]. Put plainly: ELISA on coated Pep 13; control IgG 5 ug/ml.
For assay [27], the target named is synthetic cyclic peptide (14) PPQKHLL. Put plainly: ELISA on coated Pep 14; control IgG 1 ug/ml.
Assay [28] has the same target. In words: ELISA on coated Pep 14; control IgG 5 ug/ml.
Assay [29] deals with synthetic cyclic peptide (15) KYKRKYP. In words: ELISA on coated Pep 15; control IgG 1 ug/ml.
Assay [30] has the same target. In words: ELISA on coated Pep 15; control IgG 5 ug/ml.
In assay [31] the target is synthetic cyclic peptide (1) KHETTET. Put plainly: ELISA on coated Pep 1 (Table 3); control IgG 1 ug/ml.
Assay [32] shares this target. In words: ELISA on coated Pep 1 (Table 3); control IgG 5 ug/ml.
In assay [33] the target is literature peptide …. In words: ELISA on coated Pep 2 (Table 3); control IgG 1 ug/ml.
Assay [34] deals with literature peptide …. Put plainly: ELISA on coated Pep 2 (Table 3); control IgG 5 ug/ml.
The target of assay [35] is literature peptide …. Put plainly: ELISA on coated Pep 3 (Table 3); control IgG 1 ug/ml.
In assay [36] the target is literature peptide …. Put plainly: ELISA on coated Pep 3 (Table 3); control IgG 5 ug/ml.
Assay [37] deals with literature peptide …. Put plainly: ELISA on coated Pep 4 (Table 3); control IgG 1 ug/ml.
Assay [38] has as its target literature peptide …. Put plainly: ELISA on coated Pep 4 (Table 3); control IgG 5 ug/ml.
The target in assay [39] is literature peptide …. In words: ELISA on coated Pep 5 (Table 3); control IgG 1 ug/ml.
For assay [40], the target named is literature peptide …. In words: ELISA on coated Pep 5 (Table 3); control IgG 5 ug/ml.
Assay [41] has as its target literature peptide …. In words: ELISA on coated Pep 6 (Table 3); control IgG 1 ug/ml.
For assay [42], the target named is literature peptide …. In words: ELISA on coated Pep 6 (Table 3); control IgG 5 ug/ml.
Assay [43] concerns the target literature peptide …. In words: ELISA on coated Pep 7 (Table 3); control IgG 1 ug/ml.
The target of assay [44] is literature peptide …. Put plainly: ELISA on coated Pep 7 (Table 3); control IgG 5 ug/ml.
The target in assay [45] is literature peptide …. In words: ELISA on coated Pep 8 (Table 3); control IgG 1 ug/ml.
Assay [46] deals with literature peptide …. Put plainly: ELISA on coated Pep 8 (Table 3); control IgG 5 ug/ml.
The target in assay [47] is literature peptide …. Put plainly: ELISA on coated Pep 9 (Table 3); control IgG 1 ug/ml.
Assay [48] deals with literature peptide …. In words: ELISA on coated Pep 9 (Table 3); control IgG 5 ug/ml.
Assay [49] has as its target literature peptide …. Put plainly: ELISA on coated Pep 10 (Table 3); control IgG 1 ug/ml.
For assay [50], the target named is literature peptide …. In words: ELISA on coated Pep 10 (Table 3); control IgG 5 ug/ml.
Assay [51] concerns the target literature peptide …. Put plainly: ELISA on coated Pep 11 (Table 3); control IgG 1 ug/ml.
For assay [52], the target named is literature peptide …. In words: ELISA on coated Pep 11 (Table 3); control IgG 5 ug/ml.
Assay [53] relates to anti-dsDNA antibody-positive SLE sera. The following applies: sera which cross react with ssDNA; cited from earlier work.
Assay [54] relates to immunoglobulin eluted from a peptide column bearing the peptide 706. Put plainly: ELISA of peptide column eluate with biotinylated peptides (706 column). Type of assay: binding, human. Particulars: FIG. 3; biotinylated peptide 1 μg/ml. How it is done: (§1) To measure the binding efficacy of peptide column eluates (706 and 707) the following ELISA was performed:
(§2) Microtiter plates (Costar, USA) were coated overnight at 2-8° C. with 10 μg/ml NeutrAvidin (Pierce, USA) suspended in 0.1M, pH 8.8, of carbonate-bicarbonate buffer (Sigma USA). The coating solution was removed, washed three times with washing buffer (1×PBS) and 200 μl of blocking solution (freshly prepared 1% I Block, Tropix, USA) per well was added and incubated for 1 hour at 37° C. Coated and blocked plates can be stored at −20° C. for a month before use.
(§3) Tested samples diluted in the blocking solution were mixed in a separate tube with 1 μg/ml (final concentration) of the appropriate biotinylated peptide and the mixture was incubated for 1 hour at 37° C. 100 μl from each reaction tube was then transferred to the blocked microtiter plate and incubated at 37° C. for ½ hour. A 100 μl of 1:5000 Alkaline Phosphatase conjugate goat anti human IgG (Heavy and light chain from Jackson, USA) diluted in the blocking buffer was applied into the microtiter well and incubated for 1 hour. […] The measurement was done photometrically at 405 nm.

Assay [55] relates to immunoglobulin elution peak from a peptide column bound with peptide 707. Put plainly: ELISA of peptide column eluate with biotinylated peptides (707 column). The following applies: FIG. 4; biotinylated peptide 1 μg/ml. Format: binding, human. How it is done:
as §1, §2, §3

A further assay deals with mice. The following applies: cited from earlier work.
In a further assay the test system is BALB/c neonatal mice. The following applies: BALB/c neonatal mice immunized later with pCDR1 or the pathogenic auto-Ab; cited from earlier work.

As for “IgG purified from one donor (negative control) (antibody)”, the OD at 405 nm in assay [1] stood at 0.013 OD; in [2], 0.016 OD; in [3] it was 0.009 OD; in assay [4], 0.009 OD; in assay [5] it was 0.011 OD; in [6], 0.011 OD. Besides, the OD at 405 nm in assay [7] amounted to 0.013 OD; in assay [8] it was 0.011 OD; in assay [9], 0.009 OD; in [10] it was 0.008 OD; in [11], 0.007 OD; in assay [12], 0.009 OD. For the same substance, the OD at 405 nm in assay [13] amounted to 0.045 OD; in assay [14], 0.048 OD; in assay [15] it was 0.043 OD; in assay [16], 0.046 OD; in [17], 0.045 OD; in assay [18] it was 0.044 OD. The OD at 405 nm was determined as 0.06 OD in assay [19]; 0.048 OD in assay [20]; 0.068 OD in assay [21]; 0.068 OD in [22]; 0.043 OD in assay [23]; 0.045 OD in assay [24]. Further, the OD at 405 nm stood at 0.069 OD in assay [25]; 0.078 OD in assay [26]; 0.079 OD in [27]; 0.083 OD in assay [28]; 0.037 OD in assay [29]; 0.068 OD in [30]. The OD at 405 nm in assay [31] is 0.044 OD; in assay [32], 0.043 OD; in assay [33], 0.04 OD; in assay [34] it was 0.041 OD; in assay [35], 0.043 OD; in assay [36], 0.043 OD. Moreover, the OD at 405 nm in assay [37] was 0.04 OD; in assay [38] it was 0.039 OD; in assay [39], 0.043 OD; in assay [40], 0.048 OD; in [41], 0.046 OD; in assay [42], 0.043 OD. Also, the OD at 405 nm was found to be 0.043 OD in [43]; 0.052 OD in assay [44]; 0.044 OD in assay [45]; 0.041 OD in [46]; 0.044 OD in assay [47]; 0.045 OD in [48]. The OD at 405 nm in assay [49] came to 0.042 OD; in [50], 0.041 OD; in assay [51] it was 0.043 OD; in assay [52], 0.041 OD.
Take “RLTSSLRYNP [synthetic peptide mimotope of dsDNA (Sun et al. 2001)]”: in assay [53], the “share of anti-dsDNA antibody-positive SLE sera that recognize the peptide” value is given as 88%.
For the substance TGYYMQWVKQSPEKSLEWIG [Pep 706], the “binding of 706 column eluate to biotinylated peptide” value in assay [54] is “reacted specifically in a linear fashion”. Moreover, the “binding of 707 column eluate to biotinylated peptide” value in assay [55] is listed as “reacted”. For the same substance, in the assay with mice (experimental SLE mice), the “effect on disease in experimental SLE mice” value was “ameliorate the disease”. The “induction of SLE-like disease in mice” value with mice (responder mice (BALB/c, SJL)) is given as “induced a mild SLE-like disease”. For the same substance, in the assay with BALB/c neonatal mice, the auto-Ab production result is given as “prevent auto-Ab production”.
